Results published in PMC4699771.

Tested on: T1, YhaJ (Escherichia coli EHEC O157:H7? EDL933 (amplified from TUV93-0 genomic DNA)), ORF:62819c23
T1 sequence: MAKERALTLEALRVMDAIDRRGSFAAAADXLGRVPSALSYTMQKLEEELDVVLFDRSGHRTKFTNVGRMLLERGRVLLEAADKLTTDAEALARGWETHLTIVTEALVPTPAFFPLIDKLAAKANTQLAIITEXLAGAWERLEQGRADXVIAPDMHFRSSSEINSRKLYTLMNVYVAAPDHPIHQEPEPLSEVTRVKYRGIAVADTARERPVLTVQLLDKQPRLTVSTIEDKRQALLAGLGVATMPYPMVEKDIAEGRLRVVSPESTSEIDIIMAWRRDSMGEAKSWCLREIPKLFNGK
Assay: EMSA
Details: EMSA: Roche DIG Gel Shift Kit 2nd Gen (buffer, salt and pH not stated), 30 min at 30 C, YhaJ 0-1 uM, DIG probe diluted to 0.4 ng/ul, 6% DNA retardation gel

Row | Sequence | binding
1 | CCTGCTGTAGAACTGCAATTTGCTCTATAAGCTGAATGTATGGACTTGTTGTATGTGAATTATTTTCCATATTCATAATAAATAATCTCCGCATGCTTTAATATTTTAAGCTATTAGCGACCTTATCAGGAAGGACCAACAATTAATCAAATGATATAAATTATGTGAGATAACGTTTATCTATCAAATTAGGACACATCTATTTCATCAAACAACCACCTTAAAATG (double strand) [LEE1 P2 promoter probe] | no binding
2 | TCGCTCAATATTTTGTAGGGCTTATTATTTTTTTCCGAGCCGCATCAAGGCGATATGCGGTCTACGTTTTTGCAGGCGAGTTATTAGAATAAAGAAATGATACGCGCGAGGTCAGAGAAAATCTTCACAATCAAGACTTTGAAATAACGGAGATGGATAAGAATTTTCTACTAAATTAATCGCAAGAGAATATTCACTCTCTATTTGCGGCAGATCACAAAAAAAAGGTGCACATTTGTGCACCCAAGGATGAAAGCTGACAGCAATGTCAGCCGCAGACCACTTTAATGGCCAGTCCGC (double strand) [pyhaO promoter probe] | binds
